Test [1] addresses T1, GB1-tagged ks-vFLIP (residues 1 to 188) (Kaposi's sarcoma-associated herpesvirus …, UniProt Q76RF1 1-188). The experiment in a line: ITC; in buffer.
Test [2] has as its target T1, GB1-tagged ks-vFLIP (residues 1 to 188). The experiment in a line: ITC; apparent Kd, competition in presence of spIKKγ (deionized water).

B1: IKKγ fragment encompassing residues 150 to 272 (domain or fragment)
chain: LGELQESQSRLEAATKECQALEGRARAASEQARQLESEREALQQQHSVQVDQLRMQGQSVEAALRMERQAASEEKRKLAQLQVAYHQLFQEYDNHIKSSVVGSERKRGMQLEDLKQQLQQAEE
Consider B1, for which the figures for the Kd in test [1] and in test [2] were 0.2 µM and 30.4 µM, respectively.

These data come from publication PMC5686756 (2017).
